Data published in publication PMC9748339, “Co-crystalization reveals the interaction between AtYchF1 and ppGpp” (Frontiers in Molecular Biosciences, 2022).

T1: MBP-AtYchF1 (Arabidopsis thaliana, UniProt Q9SA73)
T1 construct: gene YchF1; AtYchF1 cDNA in pMAL-C2, N-terminal MBP tag kept, E. coli BL21 (DE3)
T1 sequence (Q9SA73 1-394): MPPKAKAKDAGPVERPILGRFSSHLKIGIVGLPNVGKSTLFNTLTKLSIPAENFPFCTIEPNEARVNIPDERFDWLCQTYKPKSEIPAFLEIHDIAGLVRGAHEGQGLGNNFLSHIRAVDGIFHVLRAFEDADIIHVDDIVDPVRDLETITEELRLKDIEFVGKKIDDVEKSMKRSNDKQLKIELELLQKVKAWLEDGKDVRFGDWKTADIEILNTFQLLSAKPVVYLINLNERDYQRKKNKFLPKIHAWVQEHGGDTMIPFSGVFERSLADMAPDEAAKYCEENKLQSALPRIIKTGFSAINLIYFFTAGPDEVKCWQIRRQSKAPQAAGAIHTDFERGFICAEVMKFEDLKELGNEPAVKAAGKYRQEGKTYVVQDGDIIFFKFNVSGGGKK

B1: MBP-AtYchF1 (Arabidopsis thaliana) (protein)
chain: T1 sequence (Q9SA73 1-394)
notes: AtYchF1 cDNA in pMAL-C2, N-terminal MBP tag kept, E. coli BL21 (DE3)

Experiments:
[1] = target: T1, MBP-AtYchF1; assay: competition with Mant-GTP or Mant-ATP, fluorescence […]-500 nm; assay type: binding; settings: 31 μM Mant-GTP or Mant-ATP; about 100 μM MBP-AtYchF1; competitive
[2] = substrate: Nc1nc2c(ncn2[C@@H]2O[C@H](COP(=O)(O)OP(=O)(O)O)[C@@H](OP(=O)(O)OP(=O)(O)O)[C@H]2O)c(=O)[nH]1; assay: purified protein; assay type: biochemical, Arabidopsis thaliana; settings: 300 μM MBP-AtYchF1; room temperature; PPi release
[3] = substrate: Nc1ncnc2c1ncn2[C@@H]1O[C@H](COP(=O)(O)OP(=O)(O)OP(=O)(O)O)[C@@H](O)[C@H]1O; assay: purified protein; assay type: biochemical, Arabidopsis thaliana; settings: 300 μM MBP-AtYchF1; Pi release
[4] = substrate: Nc1nc2c(ncn2[C@@H]2O[C@H](COP(=O)(O)OP(=O)(O)OP(=O)(O)O)[C@@H](O)[C@H]2O)c(=O)[nH]1; assay: purified protein; assay type: biochemical, Arabidopsis thaliana; settings: 300 μM MBP-AtYchF1; Pi release

Molecule	competition with Mant-GTP or Mant-ATP, fluorescence 400-500 nm [1]	Km [2]	Vmax [2]	Km [3]	Vmax [3]	Km [4]	Vmax [4]
Nc1nc2c(ncn2[C@@H]2O[C@H](COP(=O)(O)OP(=O)(O)O)[C@@H](OP(=O)(O)OP(=O)(O)O)[C@H]2O)c(=O)[nH]1 [ppGpp]	ppGpp competed well against Mant-GTP and Mant-ATP for the binding of MBP-AtYchF1	–	–	–	–	–	–
B1	–	2235 ± 294.3 µM	0.0349 µmol/min	1278 ± 183.8 µM	0.0939 µmol/min	1203 ± 125.5 µM	0.0924 µmol/min
